Source: patent CN114591430A

Assays:
牛血清白蛋白(BSA) (bovine) [1] = biological target: 牛血清白蛋白(BSA) (bovine) (UniProt P02769); experiment: indirect ELISA, BSA coated at 1 ug/ml, purified antibody at dilution 16K, HRP goat anti-mouse IgG
牛血清白蛋白(BSA) (bovine) [2] = biological target: 牛血清白蛋白(BSA) (bovine) (UniProt P02769); experiment: ELISA, BSA coated at 1 ug/ml, biotin-labelled antibody at dilution 32K, HRP-avidin
牛血清白蛋白(BSA) (bovine) [3] = biological target: 牛血清白蛋白(BSA) (bovine) (UniProt P02769); experiment: ELISA, BSA coated at 1 ug/ml, biotin-labelled antibody at dilution 64K, HRP-avidin
牛血清白蛋白(BSA) (bovine) [4] = biological target: 牛血清白蛋白(BSA) (bovine) (UniProt P02769); experiment: ELISA, BSA coated at 1 ug/ml, biotin-labelled antibody at dilution 8K, HRP-avidin
牛血清白蛋白(BSA) (bovine) [5] = biological target: 牛血清白蛋白(BSA) (bovine) (UniProt P02769); experiment: ELISA, BSA coated at 1 ug/ml, biotin-labelled antibody at dilution 128K, HRP-avidin
牛血清白蛋白(BSA) (bovine) [6] = biological target: 牛血清白蛋白(BSA) (bovine) (UniProt P02769); experiment: indirect ELISA, BSA coated at 1 ug/ml, purified antibody at dilution 1024K, HRP goat anti-mouse IgG
牛血清白蛋白(BSA) (bovine) [7] = biological target: 牛血清白蛋白(BSA) (bovine) (UniProt P02769); experiment: indirect ELISA, BSA coated at 1 ug/ml, purified antibody at dilution 512K, HRP goat anti-mouse IgG
牛血清白蛋白(BSA) (bovine) [8] = biological target: 牛血清白蛋白(BSA) (bovine) (UniProt P02769); experiment: ELISA, BSA coated at 1 ug/ml, biotin-labelled antibody at dilution 1K, HRP-avidin
牛血清白蛋白(BSA) (bovine) [9] = biological target: 牛血清白蛋白(BSA) (bovine) (UniProt P02769); experiment: ELISA, BSA coated at 1 ug/ml, biotin-labelled antibody at dilution 256K, HRP-avidin
牛血清白蛋白(BSA) (bovine) [10] = biological target: 牛血清白蛋白(BSA) (bovine) (UniProt P02769); experiment: indirect ELISA, BSA coated at 1 ug/ml, purified antibody at dilution 1K, HRP goat anti-mouse IgG
牛血清白蛋白(BSA) (bovine) [11] = biological target: 牛血清白蛋白(BSA) (bovine) (UniProt P02769); experiment: indirect ELISA, BSA coated at 1 ug/ml, purified antibody at dilution 2K, HRP goat anti-mouse IgG
牛血清白蛋白(BSA) (bovine) [12] = biological target: 牛血清白蛋白(BSA) (bovine) (UniProt P02769); experiment: ELISA, BSA coated at 1 ug/ml, biotin-labelled antibody at dilution 2K, HRP-avidin
牛血清白蛋白(BSA) (bovine) [13] = biological target: 牛血清白蛋白(BSA) (bovine) (UniProt P02769); experiment: indirect ELISA, BSA coated at 1 ug/ml, purified antibody at dilution 64K, HRP goat anti-mouse IgG
牛血清白蛋白(BSA) (bovine) [14] = biological target: 牛血清白蛋白(BSA) (bovine) (UniProt P02769); experiment: ELISA, BSA coated at 1 ug/ml, biotin-labelled antibody at dilution 512K, HRP-avidin
牛血清白蛋白(BSA) (bovine) [15] = biological target: 牛血清白蛋白(BSA) (bovine) (UniProt P02769); experiment: ELISA, BSA coated at 1 ug/ml, biotin-labelled antibody at dilution 1024K, HRP-avidin
牛血清白蛋白(BSA) (bovine) [16] = biological target: 牛血清白蛋白(BSA) (bovine) (UniProt P02769); experiment: indirect ELISA, BSA coated at 1 ug/ml, purified antibody at dilution 4K, HRP goat anti-mouse IgG
牛血清白蛋白(BSA) (bovine) [17] = biological target: 牛血清白蛋白(BSA) (bovine) (UniProt P02769); experiment: indirect ELISA, BSA coated at 1 ug/ml, purified antibody at dilution 32K, HRP goat anti-mouse IgG
牛血清白蛋白(BSA) (bovine) [18] = biological target: 牛血清白蛋白(BSA) (bovine) (UniProt P02769); experiment: indirect ELISA, BSA coated at 1 ug/ml, purified antibody at dilution 128K, HRP goat anti-mouse IgG
牛血清白蛋白(BSA) (bovine) [19] = biological target: 牛血清白蛋白(BSA) (bovine) (UniProt P02769); experiment: indirect ELISA, BSA coated at 1 ug/ml, purified antibody at dilution 8K, HRP goat anti-mouse IgG
牛血清白蛋白(BSA) (bovine) [20] = biological target: 牛血清白蛋白(BSA) (bovine) (UniProt P02769); experiment: ELISA, BSA coated at 1 ug/ml, biotin-labelled antibody at dilution 16K, HRP-avidin
牛血清白蛋白(BSA) (bovine) [21] = biological target: 牛血清白蛋白(BSA) (bovine) (UniProt P02769); experiment: ELISA, BSA coated at 1 ug/ml, biotin-labelled antibody at dilution 4K, HRP-avidin
牛血清白蛋白(BSA) (bovine) [22] = biological target: 牛血清白蛋白(BSA) (bovine) (UniProt P02769); experiment: indirect ELISA, BSA coated at 1 ug/ml, purified antibody at dilution 256K, HRP goat anti-mouse IgG

Sequence of UniProt P02769 (P02769 25-607): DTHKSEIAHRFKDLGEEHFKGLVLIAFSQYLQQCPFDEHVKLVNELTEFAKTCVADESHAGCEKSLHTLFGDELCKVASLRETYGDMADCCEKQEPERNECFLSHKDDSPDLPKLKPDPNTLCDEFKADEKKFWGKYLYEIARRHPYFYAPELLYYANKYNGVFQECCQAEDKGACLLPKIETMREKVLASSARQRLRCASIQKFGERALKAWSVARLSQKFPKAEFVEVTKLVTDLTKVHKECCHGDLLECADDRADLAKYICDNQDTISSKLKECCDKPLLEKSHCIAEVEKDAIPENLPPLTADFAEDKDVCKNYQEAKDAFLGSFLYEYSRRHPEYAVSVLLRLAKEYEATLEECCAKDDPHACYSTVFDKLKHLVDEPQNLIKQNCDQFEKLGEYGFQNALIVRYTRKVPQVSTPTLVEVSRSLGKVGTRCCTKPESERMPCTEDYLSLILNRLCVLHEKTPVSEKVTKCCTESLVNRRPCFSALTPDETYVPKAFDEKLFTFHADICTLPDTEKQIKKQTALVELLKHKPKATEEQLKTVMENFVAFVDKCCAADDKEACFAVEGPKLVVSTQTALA

OD450 (牛血清白蛋白(BSA) (bovine) [1]): 0.648
OD450 (牛血清白蛋白(BSA) (bovine) [2]): 1.13
OD450 (牛血清白蛋白(BSA) (bovine) [3]): 0.885
OD450 (牛血清白蛋白(BSA) (bovine) [4]): 1.66
OD450 (牛血清白蛋白(BSA) (bovine) [5]): 0.677
OD450 (牛血清白蛋白(BSA) (bovine) [6]): 0.161
OD450 (牛血清白蛋白(BSA) (bovine) [7]): 0.184
OD450 (牛血清白蛋白(BSA) (bovine) [8]): 2.39
OD450 (牛血清白蛋白(BSA) (bovine) [9]): 0.431
OD450 (牛血清白蛋白(BSA) (bovine) [10]): 2.21
OD450 (牛血清白蛋白(BSA) (bovine) [11]): 1.64
OD450 (牛血清白蛋白(BSA) (bovine) [12]): 2.11
OD450 (牛血清白蛋白(BSA) (bovine) [13]): 0.454
OD450 (牛血清白蛋白(BSA) (bovine) [14]): 0.332
OD450 (牛血清白蛋白(BSA) (bovine) [15]): 0.15
OD450 (牛血清白蛋白(BSA) (bovine) [16]): 0.981
OD450 (牛血清白蛋白(BSA) (bovine) [17]): 0.538
OD450 (牛血清白蛋白(BSA) (bovine) [18]): 0.371
OD450 (牛血清白蛋白(BSA) (bovine) [19]): 0.846
OD450 (牛血清白蛋白(BSA) (bovine) [20]): 1.42
OD450 (牛血清白蛋白(BSA) (bovine) [21]): 1.9
OD450 (牛血清白蛋白(BSA) (bovine) [22]): 0.269
B1: BSA抗体B6 (antibody, V domains shown)
VH: VQLQESGAELVKPGASVKLSCKASGYTFTGQYVSWVKQRPGQGLEWIGEDNKSSRQGTEYSKATLTVDKSSSTAYMQLSSLTSEDSAVYYCTRDEVRSETYWGQGTTVTVSS
VL: DIVLTQSPATLSVTPGDSVSLSCRTEDKSLSYHWFQQKSHESPRLLIKDAYQKISGIPSRFNGCGSGTDFTLNINSVETEDFGMFFCQTSGWTHFGSGTKLEIKR
